Results as given in publication PMC5895748.

Each substance was assayed against human Toll-like receptor 5 (hTLR5) (human) (UniProt O60602).
UniProt O60602, sequence (O60602 21-858): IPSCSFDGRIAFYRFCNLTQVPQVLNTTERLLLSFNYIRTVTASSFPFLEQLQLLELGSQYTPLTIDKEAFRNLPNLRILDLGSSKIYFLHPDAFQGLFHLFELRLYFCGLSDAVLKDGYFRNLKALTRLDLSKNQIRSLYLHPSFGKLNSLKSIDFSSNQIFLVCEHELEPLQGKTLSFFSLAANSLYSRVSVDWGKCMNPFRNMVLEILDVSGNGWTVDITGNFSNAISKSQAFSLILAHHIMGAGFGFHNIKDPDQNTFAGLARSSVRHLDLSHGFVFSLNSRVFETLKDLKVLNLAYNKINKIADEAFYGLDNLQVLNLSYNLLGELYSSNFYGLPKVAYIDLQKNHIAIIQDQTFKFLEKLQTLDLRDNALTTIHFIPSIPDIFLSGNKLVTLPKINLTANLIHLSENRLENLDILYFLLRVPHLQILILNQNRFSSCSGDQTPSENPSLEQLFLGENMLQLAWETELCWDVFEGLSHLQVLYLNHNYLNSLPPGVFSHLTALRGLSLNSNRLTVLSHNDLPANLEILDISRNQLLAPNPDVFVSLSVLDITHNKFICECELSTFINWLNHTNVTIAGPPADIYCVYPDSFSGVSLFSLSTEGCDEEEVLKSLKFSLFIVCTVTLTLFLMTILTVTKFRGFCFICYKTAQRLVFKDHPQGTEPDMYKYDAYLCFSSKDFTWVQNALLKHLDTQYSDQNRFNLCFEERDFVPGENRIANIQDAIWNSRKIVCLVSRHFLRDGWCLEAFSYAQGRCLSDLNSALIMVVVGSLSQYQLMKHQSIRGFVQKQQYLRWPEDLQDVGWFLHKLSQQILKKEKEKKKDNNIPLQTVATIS
For “BcFlg^nF, T4 lysozyme fused to the N-terminal end of BcFlg”, the EC50 of TLR5 stimulation, HEK293blue-hTLR5 reporter cells (NF-kB-inducible SEAP) was 44.2 pM.
In the case of “BcFlg^cF, T4 lysozyme fused to the C-terminal end of BcFlg”, the EC50 of TLR5 stimulation, HEK293blue-hTLR5 reporter cells (NF-kB-inducible SEAP) is reported as 2.3 pM and the EC50 of TLR5 stimulation, HEK293blue-hTLR5 reporter cells (SEAP); protein incubated at 37 °C for 24 hours before the assay is reported as 129 pM.
Work on “Bacillus cereus flagellin BC1659 (natural protein)” yielded an EC50 of TLR5 stimulation, HEK293blue-hTLR5 reporter cells (NF-kB-inducible SEAP) of 55.4 pM.
With “BcFlg^mF, T4 lysozyme inserted into BcFlg residues 178-180” the EC50 of TLR5 stimulation, HEK293blue-hTLR5 reporter cells (NF-kB-inducible SEAP) was 1.4 pM and the EC50 of TLR5 stimulation, HEK293blue-hTLR5 reporter cells (SEAP); protein incubated at 37 °C for 24 hours before the assay was 2.4 pM.
Substance “Bacillus cereus flagellin BC1658 (BcFlg) (natural protein)” has an EC50 of TLR5 stimulation, HEK293blue-hTLR5 reporter cells (NF-kB-inducible SEAP) of 1.7 pM and an EC50 of TLR5 stimulation, HEK293blue-hTLR5 reporter cells (SEAP); protein incubated at 37 °C for 24 hours before the assay of 1.9 pM.
